Results reported in publication PMC10072072 (mAbs, 2023).

What was measured:
[1] = molecular target: CD3 on the surface of cyno HSC-F T cells (Macaca fascicularis (HSC-F), UniProt Q95LI5;Q95LI8); assay: flow cytometry on cells
[2] = molecular target: CD3 on the surface of human Jurkat T cells (Homo sapiens (Jurkat), UniProt P07766;P04234); assay: flow cytometry on cells
[3] = molecular target: Human CD3 epsilon-delta (εδ) heterodimer, Fc fusion (Homo sapiens, UniProt P07766;P04234); assay: BLI
[4] = molecular target: Cyno CD3εδ heterodimer, Fc fusion (Macaca fascicularis, UniProt Q95LI5;Q95LI8); assay: BLI
Sequence of Cyno CD3εδ heterodimer, Fc fusion (Q95LI5 22-117, stated change not applied, chain 1 of 2): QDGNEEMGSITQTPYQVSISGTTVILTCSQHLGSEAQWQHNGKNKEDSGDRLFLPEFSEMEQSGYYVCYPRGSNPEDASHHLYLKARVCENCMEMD
Sequence of Cyno CD3εδ heterodimer, Fc fusion (Q95LI8 22-100, stated change not applied, chain 2 of 2): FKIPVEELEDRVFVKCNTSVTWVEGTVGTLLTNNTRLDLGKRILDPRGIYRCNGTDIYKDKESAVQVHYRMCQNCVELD

Sequence of CD3 on the surface of cyno HSC-F T cells (Q95LI5 22-198, one chain of several): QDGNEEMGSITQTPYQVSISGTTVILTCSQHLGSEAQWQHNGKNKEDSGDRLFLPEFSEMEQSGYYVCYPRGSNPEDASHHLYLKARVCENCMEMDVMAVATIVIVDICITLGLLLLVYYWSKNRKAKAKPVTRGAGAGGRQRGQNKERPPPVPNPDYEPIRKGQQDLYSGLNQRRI
Sequence of Human CD3 epsilon-delta (εδ) heterodimer, Fc fusion (P07766 23-126, stated change not applied, chain 1 of 2): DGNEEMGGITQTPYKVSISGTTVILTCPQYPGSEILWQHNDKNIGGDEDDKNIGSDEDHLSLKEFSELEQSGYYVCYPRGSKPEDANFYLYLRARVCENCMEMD
Sequence of Human CD3 epsilon-delta (εδ) heterodimer, Fc fusion (P04234 22-100, stated change not applied, chain 2 of 2): as the sequence (Q95LI8 22-100, stated change not applied, chain 2 of 2) above, with V5I, K15N, V20I, T32S, N33D, N34I, A64T, N74S counted along it
Sequence of CD3 on the surface of human Jurkat T cells (P07766 23-207, one chain of several): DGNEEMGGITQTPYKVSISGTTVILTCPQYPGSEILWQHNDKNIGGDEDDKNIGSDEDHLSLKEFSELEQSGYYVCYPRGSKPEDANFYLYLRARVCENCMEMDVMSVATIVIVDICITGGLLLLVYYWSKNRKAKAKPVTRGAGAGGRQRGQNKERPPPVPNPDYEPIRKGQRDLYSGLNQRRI

Row | Binder | binding result [1] | binding result [2] | binding result [3] | binding result [4]
1 | ADI-26906 IgG1 variant L3-R94E (antibody, V domains shown) VH: QVQLVQSGAEVKKPGASVKVSCKASGFNIKDYYMHWVRQAPGQRLEWMGWIDLENANTIYDAKFQGRVTITRDTSASTAYMELSSLRSEDTAVYYCARDAYGRYFYDVWGQGTLVTVSS VL: DIVMTQSPDSLAVSLGERATINCKSSQSLLNARTGKNYLAWYQQKPGQPPKLLIYWASTRESGVPDRFSGSGSGTDFTLTISSLQAEDVAVYYCKQSYSERTFGGGTKVEIK | binds | binds | binds | binds
2 | ADI-26906 Fab (from CHO-produced IgG, papain digest) (Fab, V domains shown) VH: QVQLVQSGAEVKKPGASVKVSCKASGFNIKDYYMHWVRQAPGQRLEWMGWIDLENANTIYDAKFQGRVTITRDTSASTAYMELSSLRSEDTAVYYCARDAYGRYFYDVWGQGTLVTVSS VL: DIVMTQSPDSLAVSLGERATINCKSSQSLLNARTGKNYLAWYQQKPGQPPKLLIYWASTRESGVPDRFSGSGSGTDFTLTISSLQAEDVAVYYCKQSYSRRTFGGGTKVEIK | binds | – | – | –
3 | ADI-26906 IgG1 (antibody, V domains shown) VH: QVQLVQSGAEVKKPGASVKVSCKASGFNIKDYYMHWVRQAPGQRLEWMGWIDLENANTIYDAKFQGRVTITRDTSASTAYMELSSLRSEDTAVYYCARDAYGRYFYDVWGQGTLVTVSS VL: DIVMTQSPDSLAVSLGERATINCKSSQSLLNARTGKNYLAWYQQKPGQPPKLLIYWASTRESGVPDRFSGSGSGTDFTLTISSLQAEDVAVYYCKQSYSRRTFGGGTKVEIK | binds | – | – | binds
